This passage reports fold resistance to gp120 shedding (CD4mc+cold) against the Tri Bam Env and fold reduction of gp120 shedding against the Tri FPPR Bam Env results from article PMC11228805.

The assay concerns the target gp41 (Q567K/A582T/A532V/I535M/L543Q/K574R/S752F/I756F) of the HIV-1AD8 Tri FPPR Bam Envs with K574R (HIV-1 AD8). As to the kind of experiment: gp120 shedding from virus particles.

“gp120 (Q114E/K59A) of the HIV-1AD8 Tri FPPR Bam-K59A and Tri FPPR Bam-K59A/K574R Envs (natural protein)” came in with a fold resistance to gp120 shedding (CD4mc+cold) against the Tri Bam Env of 40 times.

“gp120 (Q114E) of the HIV-1AD8 Tri Bam, Tri FPPR Bam and Tri FPPR Bam-K574R Envs (natural protein)”: the fold reduction of gp120 shedding against the Tri FPPR Bam Env amounted to 3.9 fold.
